These results are taken from patent US20090035818A1 (NATIONAL UNIVERSITY OF CORPORATION HIROSHIMA UNIVERSITY, published 2009).

For assay [1], the target named is T1, chicken egg yolk antibody (chicken IgY antibody) (chicken).
T1 construct: Purified from egg yolk with the Eggcellent Chicken IgY Purification Kit (Pierce)
The assay can be described thus: SPR (Biacore 2000), chicken IgY on CM5 chip, lectin as analyte. The text has this:
Assessment was made as to affinity of the different types of lectins and chicken egg yolk antibody (chicken IgY antibody). Briefly, using Biacore 2000 (BIACORE) that employs the principle of surface plasmon resonance method (hereinafter, “SPR method”), chicken egg yolk antibodies (chicken IgY antibodies) were immobilized as ligands on a sensor chip, and measurements were made according to manuals using each type of lectin solution as an analyte. The SPR technique allows for measurement of specific interactions between biomolecules both quickly and quantitatively, without labeling the biomolecules. According to this technique, the ligands are immobilized on a surface of the sensor chip, which is then supplemented with a solution of substance (analyte) that acts on the ligand. Slight changes in mass caused by the binding and dissociation of the molecules are then detected as changes in SPR signals. The mass change is represented by resonance unit (RU). One thousand RU is equivalent to a change in reflection angle of 0.1° caused by resonance, and it means that the analyte has bound to the ligand at 1 ng/mm². The surface of the sensor chip is coated with dextran, and the ligands are immobilized primarily via carboxyl groups that have been introduced into the dextran.
Affinity between each glycoprotein and each lectin was analyzed by SPR technique. Prior to analysis, preliminary analyses were made to assess analysis methods. […] An analysis program was created using “Customized Application” according to the manual, and a subtraction function was used in which subtraction was made from flow cells that had glycoproteins immobilized thereon, from among four flow cells in the sensor chip. […] Under this analysis program, each analyte (lectin) solution was flown on the sensor chip at a flow rate of 30 μl/min for 3 minutes, and buffer was flown for 3 minutes to measure the amount of lectin that had bonded/dissociated.
For orientation: SPR reads the build-up and loss of mass on a sensor chip optically.

A further assay deals with asialomucin (bovine). The assay can be described thus: cell-based or functional assay.
The target of the next assay is transferrin (human) (human, UniProt P02787 20-698). Put plainly: cell-based or functional assay.
Chain of transferrin (human) (P02787 20-698 limits assumed): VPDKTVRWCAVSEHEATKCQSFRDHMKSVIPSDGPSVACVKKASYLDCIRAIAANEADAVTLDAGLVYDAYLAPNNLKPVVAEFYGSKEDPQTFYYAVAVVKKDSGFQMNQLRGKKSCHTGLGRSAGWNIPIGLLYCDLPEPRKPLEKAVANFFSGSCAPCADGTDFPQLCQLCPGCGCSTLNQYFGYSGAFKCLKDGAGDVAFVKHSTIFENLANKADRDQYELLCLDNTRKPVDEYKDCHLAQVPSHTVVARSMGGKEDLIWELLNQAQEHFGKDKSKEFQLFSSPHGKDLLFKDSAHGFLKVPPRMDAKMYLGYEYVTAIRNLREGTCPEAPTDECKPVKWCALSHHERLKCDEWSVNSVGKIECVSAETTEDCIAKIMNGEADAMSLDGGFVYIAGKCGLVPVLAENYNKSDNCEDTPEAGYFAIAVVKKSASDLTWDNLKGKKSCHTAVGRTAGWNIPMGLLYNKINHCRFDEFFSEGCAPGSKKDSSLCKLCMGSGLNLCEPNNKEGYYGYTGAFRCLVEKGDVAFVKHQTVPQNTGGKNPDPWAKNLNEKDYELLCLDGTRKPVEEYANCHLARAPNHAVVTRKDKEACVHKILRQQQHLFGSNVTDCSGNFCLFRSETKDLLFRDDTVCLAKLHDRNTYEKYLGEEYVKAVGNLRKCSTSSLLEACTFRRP
A further assay addresses asialotransferrin (human, UniProt P02787 20-698, sugar chains desialylated by dilute acid treatment; only complex-type sugar chain). The assay can be described thus: cell-based or functional assay.
Assay [2] addresses mucin (bovine submaxillary gland) (bovine). Put plainly: cell-based or functional assay.
Assay [3] addresses T2, fetuin (type III, calf serum) (calf, UniProt P12763 19-359).
T2 sequence (looked up): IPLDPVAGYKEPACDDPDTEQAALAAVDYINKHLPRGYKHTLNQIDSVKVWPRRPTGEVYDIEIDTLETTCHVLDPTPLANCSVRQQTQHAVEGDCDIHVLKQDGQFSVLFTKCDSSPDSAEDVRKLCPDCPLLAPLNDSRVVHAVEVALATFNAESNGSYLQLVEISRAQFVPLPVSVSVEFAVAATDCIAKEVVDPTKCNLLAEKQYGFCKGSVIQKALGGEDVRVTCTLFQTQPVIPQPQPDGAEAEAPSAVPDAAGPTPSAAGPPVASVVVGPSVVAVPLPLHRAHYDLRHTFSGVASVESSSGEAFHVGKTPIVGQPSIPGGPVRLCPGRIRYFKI
The assay can be described thus: cell-based or functional assay.

Another assay addresses T3, asialofetuin (calf, UniProt P12763 19-359, sugar chains desialylated).
T3 sequence (looked up): T2 sequence (looked up)
The assay can be described thus: cell-based or functional assay.

As usually defined, the Kd is the equilibrium constant for the complex coming apart. Broadly, the koff is a measure of how fast the partners let go of each other. As a reminder, the kon is the second-order rate constant of association. Low readings indicate slow association, high ones fast association.

Chain of asialotransferrin (P02787 20-698 limits assumed): as the sequence (P02787 20-698 limits assumed) above

B1: Eucheuma serra-derived lectin ESA-2 (other)
chain: GRYTVQNQWGGSSAPWNDAGLWILGSRGNQNVMAVDVNSSDGGANLNGTMTYSGEGPIGFKGARRGESNVYDVENQWGGSSAPWHAGGQFVIGSRSGQGVLAVNITSSDGGKTLTGTMTYEREGPIGFKGTQSGGDTYNVENQWGGSSAPWNKAGIWALGDRSGQAMIAMDVSSSDGGKTLEGTMQYKGEGPIGFRGKLSGANNYSVENQWGGSSAPWNAAGDWLIGDRHNQNITAVKVSSDNDGKNLDGTCTYEREGPIGFKGVATS
In assay [1], B1 came in with a Ka of 7.73e+07 M⁻¹, a Kd of 12.9 nM, a koff of 0.00455 s⁻¹ and an association rate constant (kon) of 352000 M⁻¹ s⁻¹.

B2: BML-17 (other)
chain: VIYQDPVTSDMFAKIPMPGHRGPWYVCHSSGDWSRNEPVFGRCAIDAKGMVEAYFPYGGKDIKWPSRWSAVITTGVYWGKYNDWKQADCNGGQQVVDGGRGAVTVRMDGISECKGWTTGKSSHNEVWFGCNGKEVGSWISDTPASDVFPICQEYGAAVKIVHMGRAFN
notes: also called polypeptide isolated from Bryopsis maxima; BML-17 column (immobilised form)
B2: the “Minimum inhibitory concentration (hemagglutination inhibition, trypsin-treated rabbit erythrocytes)” value with asialomucin came out at 250 µg/mL; with transferrin (human), 2000 µg/mL; in the assay with asialotransferrin, 1000 µg/mL; in assay [2] it was 250 µg/mL; in assay [3], 1000 µg/mL; with asialofetuin, 500 µg/mL. Moreover, in assay [1], the Ka was 8.36e+07 M⁻¹. The same molecule displayed a Kd in assay [1] of 12 nM. In assay [1], this molecule displayed a koff of 0.00586 s⁻¹. In assay [1], the kon amounted to 490000 M⁻¹ s⁻¹.
